Test system: Escherichia coli TOP10
Experiment: shrunken log2 fold change of peptide-encoding DNA abundance (4.5 h post-induction vs induction); higher = less antimicrobial activity (less host growth inhibition)
Details: time post-induction: 4.5 h; library: site-saturation at positions 5, 18, 19, 20
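Further: peptides expressed intracellularly from a pBAD plasmid library in pooled LB shake-flask culture, induced with 0.3% L-arabinose, DNA abundance read by NGS, three biological replicates, DESeq2 with apeglm shrinkage.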

| Sequence | shrunken log2 fold change |
| --- | --- |
| RRIRHRPPRLPRPRPRPGRAPRP | 0.49 |
| RRIRPRPPRLPRPRPRPCNMPRP | 0.0288 |
| RRIRVRPPRLPRPRPRPFWTPRP | -0.427 |
| RRIRFRPPRLPRPRPRPLNNPRP | -0.767 |
| RRIRQRPPRLPRPRPRPWTKPRP | -0.00887 |
| RRIRIRPPRLPRPRPRPYNRPRP | -0.01 |
| RRIRRRPPRLPRPRPRPAKAPRP | 0.12 |
| RRIRMRPPRLPRPRPRPHMWPRP | 0.108 |
| RRIRNRPPRLPRPRPRPMKHPRP | -0.705 |
| RRIRGRPPRLPRPRPRPAQVPRP | 0.274 |
| RRIRKRPPRLPRPRPRPIAMPRP | 0.147 |
| RRIRIRPPRLPRPRPRPLRMPRP | -0.04 |
| RRIRQRPPRLPRPRPRPMSYPRP | -0.01 |
| RRIRRRPPRLPRPRPRPEMHPRP | 0.705 |
| RRIRWRPPRLPRPRPRPMMSPRP | 0.19 |
| RRIRIRPPRLPRPRPRPYFPPRP | -0.909 |
| RRIRARPPRLPRPRPRPFVIPRP | 0.0345 |
| RRIRGRPPRLPRPRPRPDKDPRP | 0.602 |
| RRIRNRPPRLPRPRPRPSKGPRP | -0.00183 |
| RRIRKRPPRLPRPRPRPRNWPRP | 0.95 |
| RRIRSRPPRLPRPRPRPMFYPRP | -0.544 |
| RRIRNRPPRLPRPRPRPTIIPRP | -0.905 |
| RRIRNRPPRLPRPRPRPCNPPRP | -0.378 |
| RRIRSRPPRLPRPRPRPAQGPRP | 0.19 |
| RRIRQRPPRLPRPRPRPPCKPRP | 0.0303 |

| Sequence | shrunken log2 fold change |
| --- | --- |
| RRIRSRPPRLPRPRPRPLIQPRP | -0.319 |
| RRIRIRPPRLPRPRPRPMDCPRP | -0.115 |
| RRIRGRPPRLPRPRPRPRCCPRP | 0.474 |
| RRIRTRPPRLPRPRPRPNNHPRP | -0.345 |
| RRIRNRPPRLPRPRPRPNGMPRP | -0.00904 |
| RRIRCRPPRLPRPRPRPKERPRP | 0.238 |
| RRIRQRPPRLPRPRPRPLRMPRP | 0.483 |
| RRIRFRPPRLPRPRPRPALPPRP | 0.0544 |
| RRIRTRPPRLPRPRPRPDIDPRP | 0.0151 |
| RRIRWRPPRLPRPRPRPIHMPRP | -0.246 |
| RRIRMRPPRLPRPRPRPVKPPRP | 0.202 |
| RRIRIRPPRLPRPRPRPRNDPRP | -0.543 |
| RRIRHRPPRLPRPRPRPAIRPRP | -0.000964 |
| RRIRDRPPRLPRPRPRPCNGPRP | -0.143 |
| RRIRIRPPRLPRPRPRPYIWPRP | -0.0625 |
| RRIRDRPPRLPRPRPRPRTGPRP | 0.0132 |
| RRIRFRPPRLPRPRPRPACDPRP | 0.103 |
| RRIRMRPPRLPRPRPRPEFQPRP | 0.372 |
| RRIRYRPPRLPRPRPRPAMHPRP | -0.045 |
| RRIRDRPPRLPRPRPRPWWYPRP | -0.738 |
| RRIRKRPPRLPRPRPRPCYHPRP | -0.339 |
| RRIRSRPPRLPRPRPRPHKFPRP | 0.00286 |
| RRIRFRPPRLPRPRPRPCPHPRP | -0.135 |
| RRIRWRPPRLPRPRPRPHLKPRP | -0.0706 |
| RRIRLRPPRLPRPRPRPRDMPRP | 0.00118 |

| Sequence | shrunken log2 fold change |
| --- | --- |
| RRIRKRPPRLPRPRPRPEVGPRP | 1.29 |
| RRIRHRPPRLPRPRPRPAENPRP | -0.0113 |
| RRIRHRPPRLPRPRPRPNDAPRP | -0.2 |
| RRIRTRPPRLPRPRPRPMHQPRP | -0.0917 |
| RRIRDRPPRLPRPRPRPNVKPRP | -0.631 |
| RRIRLRPPRLPRPRPRPMTAPRP | 0.0114 |
| RRIRERPPRLPRPRPRPCIFPRP | -0.749 |
| RRIRWRPPRLPRPRPRPIQQPRP | 0.0331 |
| RRIRKRPPRLPRPRPRPHMHPRP | -0.186 |
| RRIRDRPPRLPRPRPRPKVSPRP | 0.036 |
| RRIRIRPPRLPRPRPRPFPFPRP | -1.39 |
| RRIRTRPPRLPRPRPRPCARPRP | -0.187 |
| RRIRDRPPRLPRPRPRPQCGPRP | 0.192 |
| RRIRTRPPRLPRPRPRPGWHPRP | -0.014 |
| RRIRTRPPRLPRPRPRPPNLPRP | 0.0303 |
| RRIRNRPPRLPRPRPRPPCNPRP | -0.517 |
| RRIRERPPRLPRPRPRPRTPPRP | 0.214 |
| RRIRMRPPRLPRPRPRPLDKPRP | 1.96 |
| RRIRQRPPRLPRPRPRPITDPRP | 0.00271 |
| RRIRYRPPRLPRPRPRPTCKPRP | -0.178 |
| RRIRDRPPRLPRPRPRPDYRPRP | -0.241 |
| RRIRPRPPRLPRPRPRPWKDPRP | -0.0368 |
| RRIRSRPPRLPRPRPRPAVVPRP | -0.0261 |
| RRIRLRPPRLPRPRPRPQWQPRP | 0.0949 |
| RRIRMRPPRLPRPRPRPFCIPRP | -0.288 |

| Sequence | shrunken log2 fold change |
| --- | --- |
| RRIRNRPPRLPRPRPRPCAPPRP | -0.436 |
| RRIRHRPPRLPRPRPRPLHYPRP | -0.284 |
| RRIRRRPPRLPRPRPRPNQQPRP | -0.0676 |
| RRIRGRPPRLPRPRPRPAKLPRP | 0.154 |
| RRIRLRPPRLPRPRPRPTHTPRP | -0.158 |
| RRIRHRPPRLPRPRPRPKSSPRP | -0.0395 |
| RRIRTRPPRLPRPRPRPCEQPRP | 0.0027 |
| RRIRSRPPRLPRPRPRPSWNPRP | -0.342 |
| RRIRSRPPRLPRPRPRPGLMPRP | 0.197 |
| RRIRCRPPRLPRPRPRPKTQPRP | 0.0268 |
| RRIRIRPPRLPRPRPRPQKLPRP | -0.277 |
| RRIRYRPPRLPRPRPRPKGDPRP | -0.0902 |
| RRIRDRPPRLPRPRPRPVLQPRP | 0.0891 |
| RRIRARPPRLPRPRPRPFANPRP | 0.0657 |
| RRIRRRPPRLPRPRPRPSECPRP | -0.039 |
| RRIRMRPPRLPRPRPRPNRMPRP | -0.189 |
| RRIRERPPRLPRPRPRPVDQPRP | 0.0107 |
| RRIRGRPPRLPRPRPRPDQHPRP | 0.271 |
| RRIRRRPPRLPRPRPRPHPKPRP | 0.474 |
| RRIRCRPPRLPRPRPRPTFNPRP | -0.525 |
| RRIRERPPRLPRPRPRPRNAPRP | 0.105 |
| RRIRYRPPRLPRPRPRPIMCPRP | -0.197 |
| RRIRGRPPRLPRPRPRPREQPRP | 0.857 |
| RRIRWRPPRLPRPRPRPARQPRP | 0.0282 |
| RRIRSRPPRLPRPRPRPHAEPRP | 0.156 |

| Sequence | shrunken log2 fold change |
| --- | --- |
| RRIRERPPRLPRPRPRPDRIPRP | -0.311 |
| RRIRVRPPRLPRPRPRPFSDPRP | -0.263 |
| RRIRLRPPRLPRPRPRPNKWPRP | -0.066 |
| RRIRGRPPRLPRPRPRPDYAPRP | -0.0775 |
| RRIRSRPPRLPRPRPRPWQHPRP | 0.14 |
| RRIRVRPPRLPRPRPRPIRLPRP | -0.419 |
| RRIRKRPPRLPRPRPRPSTMPRP | -0.145 |
| RRIRHRPPRLPRPRPRPIYKPRP | -0.393 |
| RRIRHRPPRLPRPRPRPKTAPRP | 0.0497 |
| RRIRVRPPRLPRPRPRPVGTPRP | -0.0358 |
| RRIRARPPRLPRPRPRPGMWPRP | 0.485 |
| RRIRVRPPRLPRPRPRPHDFPRP | -0.00674 |
| RRIRARPPRLPRPRPRPLCPPRP | 0.0472 |
| RRIRIRPPRLPRPRPRPVQGPRP | 0.552 |
| RRIRVRPPRLPRPRPRPEVHPRP | -0.0892 |
| RRIRCRPPRLPRPRPRPAYMPRP | 0.119 |
| RRIRDRPPRLPRPRPRPEEHPRP | 0.937 |
| RRIRVRPPRLPRPRPRPHPFPRP | -0.0878 |
| RRIRVRPPRLPRPRPRPGMYPRP | -0.241 |
| RRIRCRPPRLPRPRPRPLIAPRP | -0.0852 |
| RRIRWRPPRLPRPRPRPGTFPRP | -0.0686 |
| RRIRRRPPRLPRPRPRPSIGPRP | -0.0466 |
| RRIRARPPRLPRPRPRPGYPPRP | 0.0269 |
| RRIRTRPPRLPRPRPRPSHSPRP | -0.399 |
| RRIRIRPPRLPRPRPRPPRDPRP | 0.203 |

| Sequence | shrunken log2 fold change |
| --- | --- |
| RRIRMRPPRLPRPRPRPMTGPRP | 0.0472 |
| RRIRTRPPRLPRPRPRPVEAPRP | 0.0918 |
| RRIRMRPPRLPRPRPRPCFQPRP | -0.0397 |
| RRIRFRPPRLPRPRPRPGVMPRP | 0.238 |
| RRIRFRPPRLPRPRPRPVPNPRP | -0.0743 |
| RRIRARPPRLPRPRPRPLINPRP | 0.0648 |
| RRIRRRPPRLPRPRPRPFWEPRP | -0.0438 |
| RRIRQRPPRLPRPRPRPWMQPRP | -0.062 |
| RRIRRRPPRLPRPRPRPMIRPRP | 0.272 |
| RRIRIRPPRLPRPRPRPDWHPRP | -0.882 |
| RRIRCRPPRLPRPRPRPWAFPRP | -0.0432 |
| RRIRARPPRLPRPRPRPHSRPRP | -0.0946 |
| RRIRPRPPRLPRPRPRPLHQPRP | -0.0461 |
| RRIRSRPPRLPRPRPRPEMHPRP | 0.0756 |
| RRIRRRPPRLPRPRPRPPREPRP | 1.11 |
| RRIRHRPPRLPRPRPRPMTTPRP | -0.125 |
| RRIRHRPPRLPRPRPRPTNKPRP | -0.557 |
| RRIRIRPPRLPRPRPRPCRVPRP | -1.39 |
| RRIRYRPPRLPRPRPRPDPPPRP | 0.0918 |
| RRIRERPPRLPRPRPRPACHPRP | -0.0945 |
| RRIRHRPPRLPRPRPRPYLDPRP | 0.00552 |
| RRIRRRPPRLPRPRPRPNFRPRP | 0.0627 |
| RRIRCRPPRLPRPRPRPGIKPRP | -0.876 |
| RRIRHRPPRLPRPRPRPGANPRP | -0.0811 |
| RRIRWRPPRLPRPRPRPPDHPRP | 0.594 |

Source: the supplement of paper PMC9112550, “Optimization of the antimicrobial peptide Bac7 by deep mutational scanning” (BMC Biology, 2022)
